# Reference: patent US20180009871A1 (INTARCIA THERAPEUTICS, published 2018)
# Where no end group is shown, it is not given here. [ ]: non-standard residue; d: D form. Aib = CC(C)(N)C(=O)O
# What was measured:
# [1] = target: human GLP-1 receptor (GLP-1R) (human, UniProt P43220 24-463); assay: cell-based or functional assay
# [2] = target: human glucagon receptor (GCGR) (human, UniProt P47871 26-477); assay: cell-based or functional assay
# Chain of human GLP-1 receptor (GLP-1R) (P43220 24-463): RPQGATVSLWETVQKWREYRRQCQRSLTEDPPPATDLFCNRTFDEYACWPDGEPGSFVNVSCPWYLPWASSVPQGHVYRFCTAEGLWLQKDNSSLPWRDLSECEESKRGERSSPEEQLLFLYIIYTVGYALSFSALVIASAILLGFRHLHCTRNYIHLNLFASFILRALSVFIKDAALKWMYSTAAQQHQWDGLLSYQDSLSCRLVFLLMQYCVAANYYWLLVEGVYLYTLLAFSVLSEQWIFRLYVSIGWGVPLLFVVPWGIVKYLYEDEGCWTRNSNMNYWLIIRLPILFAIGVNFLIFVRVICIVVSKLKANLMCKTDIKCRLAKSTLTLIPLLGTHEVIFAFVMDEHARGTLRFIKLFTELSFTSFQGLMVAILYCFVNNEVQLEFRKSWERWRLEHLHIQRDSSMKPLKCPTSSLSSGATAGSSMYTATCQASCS
Binder,hGLP1 pEC50 (cAMP) [1] [pEC50],hGCGR pEC50 (cAMP) [2] [pEC50]
YSHGTFTSDYSKYLD[Aib]KRAQEFV[Aib]WLEDEPSSKSPPPS-OH (N-terminus assumed; SMILES CC(C)C[C@H](NC(=O)[C@H](Cc1ccc(O)cc1)NC(=O)[C@H](CCCCN)NC(=O)[C@H](CO)NC(=O)[C@H](Cc1ccc(O)cc1)NC(=O)[C@H](CC(=O)O)NC(=O)[C@H](CO)NC(=O)[C@@H](NC(=O)[C@H](Cc1ccccc1)NC(=O)[C@@H](NC(=O)CNC(=O)[C@H](Cc1c[nH]cn1)NC(=O)[C@H](CO)NC(=O)[C@@H](N)Cc1ccc(O)cc1)[C@@H](C)O)[C@@H](C)O)C(=O)N[C@@H](CC(=O)O)C(=O)NC(C)(C)C(=O)N[C@@H](CCCCN)C(=O)N[C@@H](CCCNC(=N)N)C(=O)N[C@@H](C)C(=O)N[C@@H](CCC(N)=O)C(=O)N[C@@H](CCC(=O)O)C(=O)N[C@@H](Cc1ccccc1)C(=O)N[C@H](C(=O)NC(C)(C)C(=O)N[C@@H](Cc1c[nH]c2ccccc12)C(=O)N[C@@H](CC(C)C)C(=O)N[C@@H](CCC(=O)O)C(=O)N[C@@H](CC(=O)O)C(=O)N[C@@H](CCC(=O)O)C(=O)N1CCC[C@H]1C(=O)N[C@@H](CO)C(=O)N[C@@H](CO)C(=O)N[C@@H](CCCCN)C(=O)N[C@@H](CO)C(=O)N1CCC[C@H]1C(=O)N1CCC[C@H]1C(=O)N1CCC[C@H]1C(=O)N[C@@H](CO)C(=O)O)C(C)C) [Compound A55],< 9,12.2
YSHGTFTSDYSKYLD[Aib]KRAQEFV[Aib]WLEDEPSSKEPPPS-OH (N-terminus assumed; SMILES CC(C)C[C@H](NC(=O)[C@H](Cc1ccc(O)cc1)NC(=O)[C@H](CCCCN)NC(=O)[C@H](CO)NC(=O)[C@H](Cc1ccc(O)cc1)NC(=O)[C@H](CC(=O)O)NC(=O)[C@H](CO)NC(=O)[C@@H](NC(=O)[C@H](Cc1ccccc1)NC(=O)[C@@H](NC(=O)CNC(=O)[C@H](Cc1c[nH]cn1)NC(=O)[C@H](CO)NC(=O)[C@@H](N)Cc1ccc(O)cc1)[C@@H](C)O)[C@@H](C)O)C(=O)N[C@@H](CC(=O)O)C(=O)NC(C)(C)C(=O)N[C@@H](CCCCN)C(=O)N[C@@H](CCCNC(=N)N)C(=O)N[C@@H](C)C(=O)N[C@@H](CCC(N)=O)C(=O)N[C@@H](CCC(=O)O)C(=O)N[C@@H](Cc1ccccc1)C(=O)N[C@H](C(=O)NC(C)(C)C(=O)N[C@@H](Cc1c[nH]c2ccccc12)C(=O)N[C@@H](CC(C)C)C(=O)N[C@@H](CCC(=O)O)C(=O)N[C@@H](CC(=O)O)C(=O)N[C@@H](CCC(=O)O)C(=O)N1CCC[C@H]1C(=O)N[C@@H](CO)C(=O)N[C@@H](CO)C(=O)N[C@@H](CCCCN)C(=O)N[C@@H](CCC(=O)O)C(=O)N1CCC[C@H]1C(=O)N1CCC[C@H]1C(=O)N1CCC[C@H]1C(=O)N[C@@H](CO)C(=O)O)C(C)C) [Compound A54],< 9,12.4
YSHGTFTSDYSKYLDIKRAQEFV[Aib]WLEDEPSSGAPPPS-OH (N-terminus assumed; SMILES CC[C@H](C)[C@H](NC(=O)[C@H](CC(=O)O)NC(=O)[C@H](CC(C)C)NC(=O)[C@H](Cc1ccc(O)cc1)NC(=O)[C@H](CCCCN)NC(=O)[C@H](CO)NC(=O)[C@H](Cc1ccc(O)cc1)NC(=O)[C@H](CC(=O)O)NC(=O)[C@H](CO)NC(=O)[C@@H](NC(=O)[C@H](Cc1ccccc1)NC(=O)[C@@H](NC(=O)CNC(=O)[C@H](Cc1c[nH]cn1)NC(=O)[C@H](CO)NC(=O)[C@@H](N)Cc1ccc(O)cc1)[C@@H](C)O)[C@@H](C)O)C(=O)N[C@@H](CCCCN)C(=O)N[C@@H](CCCNC(=N)N)C(=O)N[C@@H](C)C(=O)N[C@@H](CCC(N)=O)C(=O)N[C@@H](CCC(=O)O)C(=O)N[C@@H](Cc1ccccc1)C(=O)N[C@H](C(=O)NC(C)(C)C(=O)N[C@@H](Cc1c[nH]c2ccccc12)C(=O)N[C@@H](CC(C)C)C(=O)N[C@@H](CCC(=O)O)C(=O)N[C@@H](CC(=O)O)C(=O)N[C@@H](CCC(=O)O)C(=O)N1CCC[C@H]1C(=O)N[C@@H](CO)C(=O)N[C@@H](CO)C(=O)NCC(=O)N[C@@H](C)C(=O)N1CCC[C@H]1C(=O)N1CCC[C@H]1C(=O)N1CCC[C@H]1C(=O)N[C@@H](CO)C(=O)O)C(C)C) [Compound A52],< 9,12.4
YSHGTFTSDYSKYLD[Aib]KRAQEFV[Aib]WLEDEKRNKPPPS-OH (N-terminus assumed; SMILES CC(C)C[C@H](NC(=O)[C@H](Cc1ccc(O)cc1)NC(=O)[C@H](CCCCN)NC(=O)[C@H](CO)NC(=O)[C@H](Cc1ccc(O)cc1)NC(=O)[C@H](CC(=O)O)NC(=O)[C@H](CO)NC(=O)[C@@H](NC(=O)[C@H](Cc1ccccc1)NC(=O)[C@@H](NC(=O)CNC(=O)[C@H](Cc1c[nH]cn1)NC(=O)[C@H](CO)NC(=O)[C@@H](N)Cc1ccc(O)cc1)[C@@H](C)O)[C@@H](C)O)C(=O)N[C@@H](CC(=O)O)C(=O)NC(C)(C)C(=O)N[C@@H](CCCCN)C(=O)N[C@@H](CCCNC(=N)N)C(=O)N[C@@H](C)C(=O)N[C@@H](CCC(N)=O)C(=O)N[C@@H](CCC(=O)O)C(=O)N[C@@H](Cc1ccccc1)C(=O)N[C@H](C(=O)NC(C)(C)C(=O)N[C@@H](Cc1c[nH]c2ccccc12)C(=O)N[C@@H](CC(C)C)C(=O)N[C@@H](CCC(=O)O)C(=O)N[C@@H](CC(=O)O)C(=O)N[C@@H](CCC(=O)O)C(=O)N[C@@H](CCCCN)C(=O)N[C@@H](CCCNC(=N)N)C(=O)N[C@@H](CC(N)=O)C(=O)N[C@@H](CCCCN)C(=O)N1CCC[C@H]1C(=O)N1CCC[C@H]1C(=O)N1CCC[C@H]1C(=O)N[C@@H](CO)C(=O)O)C(C)C) [Compound A50],< 9,11.5
YSHGTFTSDYSKYLDLKRAQEFV[Aib]WLEDEPSSGAPPPS-OH (N-terminus assumed; SMILES CC(C)C[C@H](NC(=O)[C@H](CC(=O)O)NC(=O)[C@H](CC(C)C)NC(=O)[C@H](Cc1ccc(O)cc1)NC(=O)[C@H](CCCCN)NC(=O)[C@H](CO)NC(=O)[C@H](Cc1ccc(O)cc1)NC(=O)[C@H](CC(=O)O)NC(=O)[C@H](CO)NC(=O)[C@@H](NC(=O)[C@H](Cc1ccccc1)NC(=O)[C@@H](NC(=O)CNC(=O)[C@H](Cc1c[nH]cn1)NC(=O)[C@H](CO)NC(=O)[C@@H](N)Cc1ccc(O)cc1)[C@@H](C)O)[C@@H](C)O)C(=O)N[C@@H](CCCCN)C(=O)N[C@@H](CCCNC(=N)N)C(=O)N[C@@H](C)C(=O)N[C@@H](CCC(N)=O)C(=O)N[C@@H](CCC(=O)O)C(=O)N[C@@H](Cc1ccccc1)C(=O)N[C@H](C(=O)NC(C)(C)C(=O)N[C@@H](Cc1c[nH]c2ccccc12)C(=O)N[C@@H](CC(C)C)C(=O)N[C@@H](CCC(=O)O)C(=O)N[C@@H](CC(=O)O)C(=O)N[C@@H](CCC(=O)O)C(=O)N1CCC[C@H]1C(=O)N[C@@H](CO)C(=O)N[C@@H](CO)C(=O)NCC(=O)N[C@@H](C)C(=O)N1CCC[C@H]1C(=O)N1CCC[C@H]1C(=O)N1CCC[C@H]1C(=O)N[C@@H](CO)C(=O)O)C(C)C) [Compound A51],< 9,12.3
YSHGTFTSDYSKYLD[Aib]KRAQEFVLWLEDEPSSGAPPPS-OH (N-terminus assumed; SMILES CC(C)C[C@H](NC(=O)[C@H](Cc1c[nH]c2ccccc12)NC(=O)[C@H](CC(C)C)NC(=O)[C@@H](NC(=O)[C@H](Cc1ccccc1)NC(=O)[C@H](CCC(=O)O)NC(=O)[C@H](CCC(N)=O)NC(=O)[C@H](C)NC(=O)[C@H](CCCNC(=N)N)NC(=O)[C@H](CCCCN)NC(=O)C(C)(C)NC(=O)[C@H](CC(=O)O)NC(=O)[C@H](CC(C)C)NC(=O)[C@H](Cc1ccc(O)cc1)NC(=O)[C@H](CCCCN)NC(=O)[C@H](CO)NC(=O)[C@H](Cc1ccc(O)cc1)NC(=O)[C@H](CC(=O)O)NC(=O)[C@H](CO)NC(=O)[C@@H](NC(=O)[C@H](Cc1ccccc1)NC(=O)[C@@H](NC(=O)CNC(=O)[C@H](Cc1c[nH]cn1)NC(=O)[C@H](CO)NC(=O)[C@@H](N)Cc1ccc(O)cc1)[C@@H](C)O)[C@@H](C)O)C(C)C)C(=O)N[C@@H](CCC(=O)O)C(=O)N[C@@H](CC(=O)O)C(=O)N[C@@H](CCC(=O)O)C(=O)N1CCC[C@H]1C(=O)N[C@@H](CO)C(=O)N[C@@H](CO)C(=O)NCC(=O)N[C@@H](C)C(=O)N1CCC[C@H]1C(=O)N1CCC[C@H]1C(=O)N1CCC[C@H]1C(=O)N[C@@H](CO)C(=O)O) [Compound A53],< 9,11.6
YSHGTFTSDYSKYLD[Aib]KRAQEFV[Aib]WLEDEPRNKNNPPS-OH (N-terminus assumed; SMILES CC(C)C[C@H](NC(=O)[C@H](Cc1ccc(O)cc1)NC(=O)[C@H](CCCCN)NC(=O)[C@H](CO)NC(=O)[C@H](Cc1ccc(O)cc1)NC(=O)[C@H](CC(=O)O)NC(=O)[C@H](CO)NC(=O)[C@@H](NC(=O)[C@H](Cc1ccccc1)NC(=O)[C@@H](NC(=O)CNC(=O)[C@H](Cc1c[nH]cn1)NC(=O)[C@H](CO)NC(=O)[C@@H](N)Cc1ccc(O)cc1)[C@@H](C)O)[C@@H](C)O)C(=O)N[C@@H](CC(=O)O)C(=O)NC(C)(C)C(=O)N[C@@H](CCCCN)C(=O)N[C@@H](CCCNC(=N)N)C(=O)N[C@@H](C)C(=O)N[C@@H](CCC(N)=O)C(=O)N[C@@H](CCC(=O)O)C(=O)N[C@@H](Cc1ccccc1)C(=O)N[C@H](C(=O)NC(C)(C)C(=O)N[C@@H](Cc1c[nH]c2ccccc12)C(=O)N[C@@H](CC(C)C)C(=O)N[C@@H](CCC(=O)O)C(=O)N[C@@H](CC(=O)O)C(=O)N[C@@H](CCC(=O)O)C(=O)N1CCC[C@H]1C(=O)N[C@@H](CCCNC(=N)N)C(=O)N[C@@H](CC(N)=O)C(=O)N[C@@H](CCCCN)C(=O)N[C@@H](CC(N)=O)C(=O)N[C@@H](CC(N)=O)C(=O)N1CCC[C@H]1C(=O)N1CCC[C@H]1C(=O)N[C@@H](CO)C(=O)O)C(C)C) [Compound A49],< 9,12.4
